Legend:
[1] = molecular target: human Hsp40 (DNAJA2), full length (human) (UniProt O60884); experiment: ITC; AR protein (100-200 µM) in the syringe titrated into 10-20 µM chaperone in the cell; 25 °C; 25 mM HEPES, 5 mM MgCl2, 10 mM KCl pH 7.5; one or two-site binding model; no nucleotides
[2] = molecular target: Hsp70 (SBD), residues 394-540 (human) (UniProt P0DMV8); experiment: as above
[3] = molecular target: Hsp70SBD (HSPA1A), truncated form, residues 394-509 (human) (UniProt P0DMV8); experiment: fluorescence polarisation; competition: 2 µM Hsp70SBD and 25 nM FAM-LVEALY with varying concentrations of AR protein, 30 min at room temperature; 100 mM Tris, 20 mM KCl, 6 mM MgCl2 pH 7.4; no nucleotides
[4] = molecular target: androgen receptor N-terminal domain construct NTD_(1-155) (human) (UniProt P10275); experiment: NMR titration; 1H,15N-HSQC of 33 µM 15N-labelled NTD construct with 16.5 or 33 µM (0.5 or 1 molar equivalents) unlabelled Hsp70 or Hsp40; 5 °C; 20 mM phosphate pH 7.4, 1 mM TCEP, 10% D2O; no added nucleotides

Row | Kd [1] [µM] | stoichiometry N [1] | Kd [2] [µM] | IC50 [3] [µM] | I/I0 of NTD (1-155) signals at 1 molar equivalent [4] | Substance
1 | 3.3 | 0.49 | 5 | 1.7 | – | androgen receptor N-terminal domain construct NTD_(1-155) (from UniProt P10275 1-155) (domain or fragment)
2 | – | – | – | – | 0.3 | human Hsp70 (HSPA1A), full length (from UniProt P0DMV8 1-641) (natural protein)
3 | – | – | – | – | 0.3 | human Hsp40 (DNAJA2), full length (from UniProt O60884 1-412) (natural protein)

From publication PMC6687723
